Paper PMC6501848

Columns and labels:
[1] = biological target: co-expressed CAP1-GFP/CAP2-GFP (human) (UniProt Q01518); experiment: co-purification
[2] = biological target: human CAP2 with C-terminal GFP and Strep-tag II (human) (UniProt P40123); experiment: co-purification
[3] = biological target: human CAP1 with C-terminal GFP and Strep-tag II (human) (UniProt Q01518); experiment: co-purification
[4] = biological target: human INF2-nonCAAX full-length, untagged (human); experiment: AUC
[5] = biological target: CAP in the brain inhibitory fraction (CAP1 and CAP2 of mouse brain) (mouse (endogenous in brain))
[6] = biological target: INF2-Cterm labeled with tetramethylrhodamine (human) (UniProt Q27J81); experiment: fluorescence polarisation
[7] = biological target: GFP-Strep-tagged human INF2-nonCAAX full-length, purified (human)

Sequence of untagged CAP co-purifying with CAP-GFP (likely endogenous HEK293 CAP) (Q01518 whole entry): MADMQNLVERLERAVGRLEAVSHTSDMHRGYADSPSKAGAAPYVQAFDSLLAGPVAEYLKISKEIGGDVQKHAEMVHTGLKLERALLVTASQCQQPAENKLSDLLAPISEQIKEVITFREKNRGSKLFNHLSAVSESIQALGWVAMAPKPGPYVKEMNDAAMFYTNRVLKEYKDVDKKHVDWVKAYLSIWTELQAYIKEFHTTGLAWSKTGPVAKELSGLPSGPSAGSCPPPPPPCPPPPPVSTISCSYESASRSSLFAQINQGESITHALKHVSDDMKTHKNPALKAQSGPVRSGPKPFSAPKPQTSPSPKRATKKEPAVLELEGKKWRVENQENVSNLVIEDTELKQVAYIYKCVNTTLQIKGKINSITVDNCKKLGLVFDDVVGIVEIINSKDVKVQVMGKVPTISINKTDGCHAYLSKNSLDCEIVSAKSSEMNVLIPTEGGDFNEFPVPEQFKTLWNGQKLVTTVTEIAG
Sequence of human CAP1 with C-terminal GFP and Strep-tag II (human) (Q01518 whole entry): as above
Sequence of co-expressed CAP1-GFP/CAP2-GFP (human) (Q01518 whole entry, chain 1 of 2): as the sequence (Q01518 whole entry) above
Sequence of co-expressed CAP1-GFP/CAP2-GFP (human) (P40123 whole entry, chain 2 of 2, further chain): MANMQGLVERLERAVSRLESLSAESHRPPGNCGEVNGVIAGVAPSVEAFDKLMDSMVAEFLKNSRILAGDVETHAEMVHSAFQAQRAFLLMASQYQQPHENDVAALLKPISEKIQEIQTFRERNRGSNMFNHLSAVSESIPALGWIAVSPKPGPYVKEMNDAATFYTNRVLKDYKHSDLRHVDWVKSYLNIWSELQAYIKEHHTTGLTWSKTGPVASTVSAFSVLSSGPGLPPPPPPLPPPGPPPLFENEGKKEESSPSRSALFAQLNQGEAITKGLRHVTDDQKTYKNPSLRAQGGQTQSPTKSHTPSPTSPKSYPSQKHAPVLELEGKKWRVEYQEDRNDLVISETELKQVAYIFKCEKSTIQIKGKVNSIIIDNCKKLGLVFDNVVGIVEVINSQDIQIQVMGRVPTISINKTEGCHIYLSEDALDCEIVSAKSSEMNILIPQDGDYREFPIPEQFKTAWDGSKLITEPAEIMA
Sequence of human CAP2 with C-terminal GFP and Strep-tag II (human) (P40123 whole entry): as the sequence (P40123 whole entry, chain 2 of 2, further chain) above

Substance	mole percentage compared to CAP-GFP [1] [%]	mole percentage compared to CAP-GFP [2] [%]	mole percentage compared to CAP-GFP [3] [%]	further results
human INF2-nonCAAX full-length, untagged (natural protein)	–	–	–	stoichiometry N [4]: 2
mouse brain actin (from UniProt P60710 1-375) (natural protein)	–	–	–	mole percentage compared to CAP [5]: 107%
untagged CAP2/actin complex purified from tubastatin A-treated 293 cells (from UniProt P40123;P60709)	–	–	–	Kd [6]: 1820 nM; IC50 of inhibition of INF2-mediated actin polymerization, pyrene-actin assay [7]: 263 nM

Now from value to substance, other results behind:

mole percentage compared to CAP-GFP [1] [%]	mole percentage compared to CAP-GFP [2] [%]	mole percentage compared to CAP-GFP [3] [%]	Substance	further results
90.5	88.1	82.5	actin of HEK293 cells co-purifying with recombinant CAP (from UniProt P60709 1-375) (natural protein)	–
16.5	16.3	16.8	untagged CAP co-purifying with CAP-GFP (likely endogenous HEK293 CAP) (from UniProt Q01518 1-475) (natural protein)	–
